Laboratory results published in patent US20080292619.

Target: recombinant human IGF-BP3 (GT2675 produced by GT) (UniProt P17936)
Sequence (P17936 28-291): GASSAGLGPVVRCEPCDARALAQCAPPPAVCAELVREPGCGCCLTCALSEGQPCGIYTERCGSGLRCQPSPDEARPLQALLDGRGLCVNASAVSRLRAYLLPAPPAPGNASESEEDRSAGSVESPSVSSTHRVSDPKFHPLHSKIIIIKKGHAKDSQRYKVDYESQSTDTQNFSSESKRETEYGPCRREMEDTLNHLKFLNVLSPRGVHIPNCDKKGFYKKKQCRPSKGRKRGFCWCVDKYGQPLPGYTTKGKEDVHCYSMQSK

human meltrin α-STFLAG after cleavage of the prodomain with thrombin (mature meltrin α having the prodomain deleted, 68 kDa)
digestion of rhIGF-BP3 by meltrin α (SDS-PAGE and western blotting of rhIGF-BP3): the band corresponding to rhIGF-BP3 disappeared in the case of the meltrin α having the prodomain cleaved
